For this experiment, the system named is HUVECs. The experiment in a line: Blood vessel (tube) formation assay on Matrigel. It counts as cell-based, human. The following applies: 4 hours, vs. control. The protocol: HUVECs (20,000 cells/well) were seed on a layer of previously polymerized Matrigel and treated with or without the first peptide and the second peptide. The Matrigel culture was incubated at 37° C. After 4 hours, changes in cell morphology were captured using a phase-contrast microscope (×40). Each sample was assayed in duplicate, and independent experiments were repeated three times. *P<0.05, **P,0.01, ***P<0.001 (vs. control).
HUVECs (20,000 cells/well) were seeded on a layer of previously polymerized Matrigel, treated with the visfatin-derived peptides, and then incubated in a 5% CO2 incubator at 37° C. for 4 hours. Then, changes in the cell morphology were observed and photographed using a phase-contrast microscope at 40× magnification. Each sample was assayed in duplicate, and independent experiments were repeated three times. Angiogenesis was analyzed with ImageJ software using an angiogenesis analyzer (Bethesda, MD, USA).

B1: visfatin (protein, UniProt P43490 1-491, looked up)
Nicotinamide …: MNPAAEAEFNILLATDSYKVTHYKQYPPNTSKVYSYFECREKKTENSKLRKVKYEETVFYGLQYILNKYLKGKVVTKEKIQEAKDVYKEHFQDDVFNEKGWNYILEKYDGHLPIEIKAVPEGFVIPRGNVLFTVENTDPECYWLTNWIETILVQSWYPITVATNSREQKKILAKYLLETSGNLDGLEYKLHDFGYRGVSSQETAGIGASAHLVNFKGTDTVAGLALIKKYYGTKDPVPGYSVPAAEHSTITAWGKDHEKDAFEHIVTQFSSVPVSVVSDSYDIYNACEKIWGEDLRHLIVSRSTQAPLIIRPDSGNPLDTVLKVLEILGKKFPVTENSKGYKLLPPYLRVIQGDGVDINTLQEIVEGMKQKMWSIENIAFGSGGGLLQKLTRDLLNCSFKCSYVVTNGLGINVFKDPVADPNKRSKKGRLSLHRTPAGNFVTLEEGKGDLEEYGQDLLHTVFKNGKVTKSYSFDEIRKNAQLNIELEAAHH
notes: 55 kDa cytokine secreted from adipocytes, used as positive control
As for B1, the “number of master junctions (tube formation)” value (second peptide except at the 2.0 μM concentration) is recorded as “significantly increased”. The “number of meshes (tube formation)” value (positive controls) is “not significantly changed”.

For the origin of these results see US20260166130A1, “PEPTIDE COMPOSITION HAVING ANGIOGENIC ACTIVITY, AND PHARMACEUTICAL COMPOSITION USING SAME AND COSMETIC COMPOSITION USING SAME” (LABTOMEDI CRO CO.,LTD., priority 2022, published 2026).
